According to patent US20030134325A1:
Values belong to the substance of their own block, whether it stands above or below them.

Tests used:
[1] = biological target: mouse immunoglobulin (MIgG); assay: binding to BIOMAG-MIgG; fluorescence
[2] = biological target: mouse immunoglobulin (MIgG); assay: competitive fluoroimmunoassay; 250 ng conjugate, 250 ug BIOMAG-MIgG per test; soluble MIgG 1 ng/test
[3] = biological target: mouse immunoglobulin (MIgG); assay: photometric; PB-GAM 12 ug/test, soluble MIgG 0, BIOMAG-MIgG 30 ug/test
[4] = biological target: mouse immunoglobulin (MIgG); assay: competitive fluoroimmunoassay; 250 ng conjugate, 250 ug BIOMAG-MIgG per test; soluble MIgG 1,000 ng/test
[5] = biological target: mouse immunoglobulin (MIgG); assay: photometric; PB-GAM 12 ug/test, BIOMAG-MIgG 100 ug/test
[6] = biological target: mouse immunoglobulin (MIgG); assay: binding to BIOMAG-MIgG, solid phase in pseudo-excess; fluorescence
[7] = biological target: mouse immunoglobulin (MIgG); assay: photometric; PB-GAM 12 ug/test, soluble MIgG 10 ug/test, BIOMAG-MIgG 100 ug/test
[8] = biological target: mouse immunoglobulin (MIgG); assay: photometric; PB-GAM 3 ug/test, soluble MIgG 10 ug/test, BIOMAG-MIgG 300 ug/test
[9] = biological target: mouse immunoglobulin (MIgG); assay: photometric; PB-GAM 3 ug/test, soluble MIgG 0, BIOMAG-MIgG 30 ug/test
[10] = biological target: mouse immunoglobulin (MIgG); assay: competitive fluoroimmunoassay; 250 ng conjugate, 250 ug BIOMAG-MIgG per test; soluble MIgG 0
[11] = biological target: mouse immunoglobulin (MIgG); assay: competitive fluoroimmunoassay; 250 ng conjugate, 250 ug BIOMAG-MIgG per test; soluble MIgG 10 ng/test
[12] = biological target: mouse immunoglobulin (MIgG); assay: competitive fluoroimmunoassay; 250 ng conjugate, 250 ug BIOMAG-MIgG per test; soluble MIgG 100 ng/test
[13] = biological target: mouse immunoglobulin (MIgG); assay: 50 ul conjugate (80 ug/ml) + BIOMAG-MIgG 1 mg/test; soluble MIgG 10 ug/test
[14] = biological target: mouse immunoglobulin (MIgG); assay: photometric; PB-GAM 40 ug/test, soluble MIgG 0, BIOMAG-MIgG 30 ug/test
[15] = biological target: mouse immunoglobulin (MIgG); assay: photometric; PB-GAM 3 ug/test, soluble MIgG 10 ug/test, BIOMAG-MIgG 100 ug/test
[16] = biological target: rabbit IgG (RIgG); assay: microtiter displacement assay; conjugate prebound to RIgG-coated wells; MIgG 0 ng/test (baseline)
[17] = biological target: mouse immunoglobulin (MIgG); assay: photometric; PB-GAM 3 ug/test, soluble MIgG 0, BIOMAG-MIgG 300 ug/test
[18] = biological target: mouse immunoglobulin (MIgG); assay: photometric; PB-GAM 40 ug/test, BIOMAG-MIgG 300 ug/test
[19] = biological target: mouse immunoglobulin (MIgG); assay: photometric; PB-GAM 40 ug/test, soluble MIgG 10 ug/test, BIOMAG-MIgG 100 ug/test
[20] = biological target: mouse immunoglobulin (MIgG); assay: photometric; PB-GAM 3 ug/test, soluble MIgG 10 ug/test, BIOMAG-MIgG 30 ug/test
[21] = biological target: rabbit IgG (RIgG); assay: displacement assay; conjugate prebound to BIOMAG-RIgG; MIgG 0 ng/test (baseline)
[22] = biological target: mouse immunoglobulin (MIgG); assay: photometric; PB-GAM 12 ug/test, soluble MIgG 0, BIOMAG-MIgG 100 ug/test
[23] = biological target: mouse immunoglobulin (MIgG); assay: photometric; PB-GAM 40 ug/test, soluble MIgG 0, BIOMAG-MIgG 100 ug/test
[24] = biological target: mouse immunoglobulin (MIgG); assay: photometric; PB-GAM 12 ug/test, soluble MIgG 0, BIOMAG-MIgG 300 ug/test
[25] = biological target: mouse immunoglobulin (MIgG); assay: photometric; PB-GAM 40 ug/test, BIOMAG-MIgG 100 ug/test
[26] = biological target: mouse immunoglobulin (MIgG); assay: 50 ul conjugate (80 ug/ml) + BIOMAG-MIgG 1 mg/test; soluble MIgG 1 ng/test
[27] = biological target: mouse immunoglobulin (MIgG); assay: photometric; PB-GAM 40 ug/test, soluble MIgG 0, BIOMAG-MIgG 300 ug/test
[28] = biological target: mouse immunoglobulin (MIgG); assay: photometric; PB-GAM 3 ug/test, BIOMAG-MIgG 300 ug/test
[29] = biological target: mouse immunoglobulin (MIgG); assay: photometric; PB-GAM 3 ug/test, soluble MIgG 0, BIOMAG-MIgG 100 ug/test
[30] = biological target: mouse immunoglobulin (MIgG); assay: photometric; PB-GAM 12 ug/test, soluble MIgG 10 ug/test, BIOMAG-MIgG 300 ug/test
[31] = biological target: mouse immunoglobulin (MIgG); assay: photometric; PB-GAM 3 ug/test, BIOMAG-MIgG 30 ug/test
[32] = biological target: mouse immunoglobulin (MIgG); assay: photometric; PB-GAM 40 ug/test, BIOMAG-MIgG 30 ug/test
[33] = biological target: mouse immunoglobulin (MIgG); assay: 50 ul conjugate (80 ug/ml) + BIOMAG-MIgG 1 mg/test; soluble MIgG 0
[34] = biological target: mouse immunoglobulin (MIgG); assay: photometric; PB-GAM 12 ug/test, soluble MIgG 10 ug/test, BIOMAG-MIgG 30 ug/test
[35] = biological target: mouse immunoglobulin (MIgG); assay: photometric; PB-GAM 12 ug/test, BIOMAG-MIgG 300 ug/test
[36] = biological target: mouse immunoglobulin (MIgG); assay: photometric; PB-GAM 12 ug/test, BIOMAG-MIgG 30 ug/test
[37] = biological target: mouse immunoglobulin (MIgG); assay: photometric; PB-GAM 40 ug/test, soluble MIgG 10 ug/test, BIOMAG-MIgG 300 ug/test
[38] = biological target: mouse immunoglobulin (MIgG); assay: photometric; PB-GAM 40 ug/test, soluble MIgG 10 ug/test, BIOMAG-MIgG 30 ug/test
[39] = biological target: mouse immunoglobulin (MIgG); assay: photometric; PB-GAM 3 ug/test, BIOMAG-MIgG 100 ug/test
[40] = biological target: phycobilisome-GAM conjugate (glutaraldehyde-stabilized P. cruentum phycobilisomes conjugated to affinity-purified, Fc-specific goat anti-mouse IgG); assay: microtiter displacement of conjugate prebound to RIgG-coated wells (competitor RIgG); MIgG 1 ng/test
[41] = biological target: phycobilisome-GAM conjugate (glutaraldehyde-stabilized P. cruentum phycobilisomes conjugated to affinity-purified, Fc-specific goat anti-mouse IgG); assay: microtiter displacement of conjugate prebound to RIgG-coated wells (competitor RIgG); MIgG 1,000 ng/test
[42] = biological target: phycobilisome-GAM conjugate (glutaraldehyde-stabilized P. cruentum phycobilisomes conjugated to affinity-purified, Fc-specific goat anti-mouse IgG); assay: microtiter displacement of conjugate prebound to RIgG-coated wells (competitor RIgG); MIgG 10 ng/test
[43] = biological target: phycobilisome-GAM conjugate (glutaraldehyde-stabilized P. cruentum phycobilisomes conjugated to affinity-purified, Fc-specific goat anti-mouse IgG); assay: microtiter displacement of conjugate prebound to RIgG-coated wells (competitor RIgG); MIgG 100 ng/test
[44] = biological target: phycobilisome-GAM conjugate (glutaraldehyde-stabilized P. cruentum phycobilisomes conjugated to affinity-purified, Fc-specific goat anti-mouse IgG); assay: displacement of conjugate prebound to BIOMAG-RIgG (competitor RIgG); MIgG 1,000 ng/test
[45] = biological target: phycobilisome-GAM conjugate (glutaraldehyde-stabilized P. cruentum phycobilisomes conjugated to affinity-purified, Fc-specific goat anti-mouse IgG); assay: displacement of conjugate prebound to BIOMAG-RIgG (competitor RIgG); MIgG 10 ng/test
[46] = biological target: phycobilisome-GAM conjugate (glutaraldehyde-stabilized P. cruentum phycobilisomes conjugated to affinity-purified, Fc-specific goat anti-mouse IgG); assay: displacement of conjugate prebound to BIOMAG-RIgG (competitor RIgG); MIgG 100 ng/test
[47] = biological target: phycobilisome-GAM conjugate (glutaraldehyde-stabilized P. cruentum phycobilisomes conjugated to affinity-purified, Fc-specific goat anti-mouse IgG); assay: displacement of conjugate prebound to BIOMAG-RIgG (competitor RIgG); MIgG 1 ng/test
[48] = biological target: phycobilisome-GAM conjugate (glutaraldehyde-stabilized P. cruentum phycobilisomes conjugated to affinity-purified, Fc-specific goat anti-mouse IgG); assay: displacement of conjugate prebound to BIOMAG-RIgG (competitor RIgG); MIgG 10,000 ng/test

- % specific binding [1]: 60%
Substance: GAM antibody conjugated by glutaraldehyde to formaldehyde-stabilized phycobilisomes

- % bound [2]: 19%
- E666 [2]: 400000 cps
- inhibition [2]: 26000 cps
- Supernatant Absorbance [3]: 63 mAU/ml
- % bound [4]: 0%
- E666 [4]: 494000 cps
- inhibition [4]: 120000 cps
- % binding [5]: 20.6%
- % specific binding [6]: < 60%
- Supernatant Absorbance [7]: 68 mAU/ml
- Supernatant Absorbance [8]: 12 mAU/ml
- Supernatant Absorbance [9]: 12 mAU/ml
- % bound [10]: 24.3%
- E666 [10]: 374000 cps
- % bound [11]: 11.1%
- E666 [11]: 439000 cps
- inhibition [11]: 65000 cps
- % bound [12]: 0.8%
- E666 [12]: 490000 cps
- inhibition [12]: 116000 cps
- % bound [13]: 0%
- MIgG inhibition [13]: 1.63e+06 cps
- Supernatant E666 [13]: 3.88e+06 cps
- Supernatant Absorbance [14]: 210 mAU/ml
- Supernatant Absorbance [15]: 12 mAU/ml
- E666 (fluorescence) [16]: 343000 cps
- Supernatant Absorbance [17]: 4 mAU/ml
- % binding [18]: 18.8%
- Supernatant Absorbance [19]: 212 mAU/ml
- Supernatant Absorbance [20]: 12 mAU/ml
- E666 (supernatant fluorescence) [21]: 1.05e+06 cps
- Supernatant Absorbance [22]: 54 mAU/ml
- Supernatant Absorbance [23]: 200 mAU/ml
- Supernatant Absorbance [24]: 44 mAU/ml
- % binding [25]: 4.7%
- % bound [26]: 28%
- MIgG inhibition [26]: 547000 cps
- Supernatant E666 [26]: 2.79e+06 cps
- Supernatant Absorbance [27]: 173 mAU/ml
- % binding [28]: 66.7%
- Supernatant Absorbance [29]: 10 mAU/ml
- Supernatant Absorbance [30]: 66 mAU/ml
- % binding [31]: 0%
- % binding [32]: 0%
- % bound [33]: 42.1%
- Supernatant E666 [33]: 2.24e+06 cps
- Supernatant Absorbance [34]: 66 mAU/ml
- % binding [35]: 33.3%
- % binding [36]: 4.5%
- Supernatant Absorbance [37]: 213 mAU/ml
- Supernatant Absorbance [38]: 210 mAU/ml
- % binding [39]: 16.7%
Substance: phycobilisome-GAM conjugate (glutaraldehyde-stabilized P. cruentum phycobilisomes conjugated to affinity-purified, Fc-specific goat anti-mouse IgG) (antibody)

- % of maximal displacement [40]: 36.8%
- E666 (fluorescence) [40]: 411000 cps
- displacement [40]: 68000 cps
- % of maximal displacement [41]: 100%
- E666 (fluorescence) [41]: 528000 cps
- displacement [41]: 185000 cps
- % of maximal displacement [42]: 73%
- E666 (fluorescence) [42]: 478000 cps
- displacement [42]: 135000 cps
- % of maximal displacement [43]: 98.4%
- E666 (fluorescence) [43]: 525000 cps
- displacement [43]: 182000 cps
- % of maximal displacement [44]: 62.5%
- E666 (supernatant fluorescence) [44]: 1.25e+06 cps
- displacement [44]: 193000 cps
- % of maximal displacement [45]: 10.4%
- E666 (supernatant fluorescence) [45]: 1.08e+06 cps
- displacement [45]: 32000 cps
- % of maximal displacement [46]: 35.3%
- E666 (supernatant fluorescence) [46]: 1.16e+06 cps
- displacement [46]: 109000 cps
- % of maximal displacement [47]: 6.1%
- E666 (supernatant fluorescence) [47]: 1.07e+06 cps
- displacement [47]: 19000 cps
- % of maximal displacement [48]: 100%
- E666 (supernatant fluorescence) [48]: 1.36e+06 cps
- displacement [48]: 309000 cps
Substance: mouse immunoglobulin (MIgG) (antibody)
